The values below come from patent US20250011450A1.

The target in assay [1] is OX40 expressed on Jurkat cells (NF-kB luciferase reporter line) (UniProt P43489). In words: cell-based or functional assay.
The target in assay [2] is anti-OX40 clone 3C8, iAbaff2 IgG. In words: SEC-MALS at 1.9 mg/ml, self-association. (SEC sorts molecules by how far they enter the pores of the column.)
Assay [3] has the same target. In words: SEC-MALS at 0.38 mg/ml, self-association.
For assay [4] the target is unchanged. In words: SEC-MALS, self-association.
The target is the same in assay [5]. In words: SEC-MALS at 4.9 mg/ml, self-association.

Changes are numbered by the printed parent chain.

Sequence of UniProt P43489 (P43489 29-277 limits assumed): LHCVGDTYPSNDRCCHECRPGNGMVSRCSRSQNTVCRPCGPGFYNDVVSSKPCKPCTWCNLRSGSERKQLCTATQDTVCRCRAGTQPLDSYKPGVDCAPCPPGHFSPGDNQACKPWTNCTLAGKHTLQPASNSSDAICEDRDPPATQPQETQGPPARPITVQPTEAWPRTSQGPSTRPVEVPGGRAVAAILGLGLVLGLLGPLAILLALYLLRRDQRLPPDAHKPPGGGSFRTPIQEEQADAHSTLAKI

B1: anti-OX40 clone 3C8, iAbaff1 monomeric Fab (Fab, part only; not given: Light chain, CH1 and tag, not shown: small tags and cut ends)
heavy, part: EVQLVQSGAEVKKPGATVVVLCKASGYAFTNYLIEWVRQAPGQGLEWIGVINPGSGDTYYSEKFKGRVTLFADTSTSQAILILTSLRSEDTAVYYCARDRLDYWGQGTLVTVSS
On to B1, for which, in assay [1], the EC50 of OX40 agonist activity (Jurkat OX40 NF-kB luciferase reporter), fold against iAb IgG was determined as 100 fold and the maximal OX40 agonist activity (Jurkat OX40 NF-kB luciferase reporter), fold against iAb IgG was determined as 2 fold.

B2: anti-OX40 clone 3C8, iAbaff2 IgG (antibody, part only; not given: Light chain, V domains shown, part only)
VH: B1 heavy, part with T17S, V19I, L21S, T69F, Q78T, I80Y, I82V, T84S
B2: the SEC-MALS Molecular Weight (Da) in assay [2] turned out to be 225000 Da; in assay [3] it was 204000 Da; in assay [4] it was 227000 Da; in assay [5], 244000 Da.
